Changes are numbered by the printed parent chain. One block for each molecule: values may come before it.
Legend:
Shroom3 = target: T1, Shroom3 (Mus musculus, UniProt Q9QXN0); experiment: ELISA of purified SD2 / biotin-R2-C1 interaction; wash-out irreversibility, DTT block and Cys-to-Ala mutagenesis; type: binding
T1 construct: SD2 domain (aa 1,563–1,986)
T1 sequence (Q9QXN0 1563-1986): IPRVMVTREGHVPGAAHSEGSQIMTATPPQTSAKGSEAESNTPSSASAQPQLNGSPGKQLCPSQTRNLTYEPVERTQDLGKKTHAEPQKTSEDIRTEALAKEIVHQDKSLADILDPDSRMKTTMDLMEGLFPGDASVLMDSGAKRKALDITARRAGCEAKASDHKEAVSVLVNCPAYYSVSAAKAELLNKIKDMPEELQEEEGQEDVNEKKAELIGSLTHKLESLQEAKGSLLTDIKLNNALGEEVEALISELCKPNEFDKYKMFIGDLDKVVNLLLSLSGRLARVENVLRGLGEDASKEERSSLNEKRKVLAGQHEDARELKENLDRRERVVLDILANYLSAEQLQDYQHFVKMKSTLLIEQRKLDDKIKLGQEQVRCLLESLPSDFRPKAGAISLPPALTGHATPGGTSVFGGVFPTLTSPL
T1 sequence (P70336 698-957 partner): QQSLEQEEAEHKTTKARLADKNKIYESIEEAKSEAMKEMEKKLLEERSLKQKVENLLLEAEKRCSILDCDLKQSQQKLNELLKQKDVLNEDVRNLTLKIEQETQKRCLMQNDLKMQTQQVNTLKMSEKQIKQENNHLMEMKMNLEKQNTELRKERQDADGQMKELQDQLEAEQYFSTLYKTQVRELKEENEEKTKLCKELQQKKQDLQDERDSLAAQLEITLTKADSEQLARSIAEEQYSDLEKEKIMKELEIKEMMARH

[1] = target: T2, Shroom3 SD2 domain (aa 1,563–1,986), GST removed (mouse, UniProt Q9QXN0 1563-1986); experiment: ELISA; 0.5 µg SD2 immobilised on 96-well Immulon 2B high binding plates; Biotin-R2C1 0 to 1,778 nM (11 points) for 1 h at 25°C in TBS-1 (20 mM Tris HCl, 150 mM KCl, 0.5% Triton X-100, pH 7.9) with 0.5% BSA; NeutrAvidin-HRP; apparent Kd, hyperbolic fit; conditions: both partners purified
T2 construct: Shroom3 SD2 domain, mouse, aa 1,563-1,986; Expressed as GST-SD2 from pGST-SD2; also called WT SD2; SD2 wild type; source: E. coli, purified (glutathione agarose; GST removed with TEV protease)
T2 sequence (looked up): T1 sequence (Q9QXN0 1563-1986)

SD2 Cys254Ala (ELISA) = target: T3, SD2 Cys254Ala (ELISA) (mouse, UniProt Q9QXN0 1563-1986, Cys254Ala (SD2 numbering; Cys 1816 in full length mouse Shroom3)); experiment: ELISA; 150 ng SD2 (wild type or mutant) immobilised on 384-well high-binding plates; CCG-17444 dilutions 30 min at 25°C, then 10 ng biotin-R2C1 (1.5 ng in Figure 4) 1 h at 25°C; buffer A (20 mM Tris HCl, 150 mM KCl, 0.05% Triton X-100, 0.5% BSA, pH 7.9); NeutrAvidin-HRP; also with 1 mM DTT; conditions: both partners purified
T3 construct: Shroom3 SD2 domain, mouse, aa 1,563-1,986; also called Cys254Ala mutant
T3 sequence (looked up): T1 sequence (Q9QXN0 1563-1986) with C254A

SD2 Cys379Ala (ELISA) = target: T4, SD2 Cys379Ala (ELISA) (mouse, UniProt Q9QXN0 1563-1986, Cys379Ala (SD2 numbering; mouse Shroom3 Cys1941)); experiment: as above; conditions: both partners purified
T4 construct: Shroom3 SD2 domain, mouse, aa 1,563-1,986; SD2 Cys379 corresponds to mouse Shroom3 Cys1941 (AAF13269)
T4 sequence (looked up): T1 sequence (Q9QXN0 1563-1986) with C379A

[2] = target: T5, SD2 Cys254Ala Cys379Ala (ELISA) (mouse, UniProt Q9QXN0 1563-1986, Cys254Ala (SD2 numbering; Cys 1816 in full length mouse Shroom3) | Cys379Ala …); experiment: as above; conditions: both partners purified
T5 construct: Shroom3 SD2 domain, mouse, aa 1,563-1,986; also called double mutant SD2 Cys254Ala Cys379Ala; double Cys to Ala mutant
T5 sequence (looked up): T1 sequence (Q9QXN0 1563-1986) with C254A, C379A

[3] = target: T2, Shroom3 SD2 domain (aa 1,563–1,986), …; experiment: ELISA; competition: SD2 immobilised; 100 ng Biotin-R2C1 incubated 1 h at 25°C with unlabeled R2C1 (1–10 µg); NeutrAvidin-HRP; conditions: both partners purified
[4] = target: T6, GST-SD2 Cys254Ala (mouse Shroom3 aa 1,563–1,986, Cys1816Ala) (mouse, UniProt Q9QXN0 1563-1986, Cys254Ala (SD2 numbering; Cys 1816 in full length mouse Shroom3)); experiment: pull-down; wild type or mutant GST-SD2 (5 μg) bound to glutathione agarose resin, incubated overnight with His-Sumo-R2-C1 (12.5 μg); washed 3× Triton IP buffer, 1× PBS; SDS-PAGE, Coomassie G-250; conditions: both partners purified
T6 construct: Shroom3 SD2 domain, mouse, aa 1,563-1,986; Probably made in E. coli like the wild type; also called mutant GST-SD2; Cys254Ala SD2
T6 sequence (looked up): T1 sequence (Q9QXN0 1563-1986) with C254A

[5] = target: T7, GST-SD2 wild type (mouse Shroom3 aa 1,563–1,986) (mouse, UniProt Q9QXN0 1563-1986); experiment: as above; conditions: both partners purified
T7 construct: Shroom3 SD2 domain, mouse, aa 1,563-1,986; also called wild type GST-SD2; WT SD2
T7 sequence (looked up): T1 sequence (Q9QXN0 1563-1986)

Molecule: CC1(C)CC(=O)C2=C(C1)Nc1[nH]c(=S)[nH]c(=O)c1C2c1cccs1 (centres unmarked) [CCG-17444]
- IC50 (Shroom3): 12.4 ± 2.3 µM

- Kd [1]: 0.0049 µM
- binding result (SD2 Cys254Ala (ELISA)): binds
- binding result (SD2 Cys379Ala (ELISA)): binds
- binding result [2]: binds
B1: Biotinylated HisSUMO-R2C1 (mouse ROCK II aa 698–957) (domain or fragment, UniProt P70336 698-957, looked up)
chain: T1 sequence (P70336 698-957 partner)
modifications: biotin (NHS-PEO4-biotin; on average four biotin molecules per 1 mol of protein)
notes: No removal of the His-SUMO tag is described; also called Biotin-R2C1; biotinylated R2-C1; source: E. coli, purified (HisPur Ni-NTA), biotinylated with NHS-PEO4-biotin

- binding result [3]: binds
- binding result [4]: binds
- binding result [5]: binds
B2: HisSUMO-R2C1 (mouse ROCK II aa 698–957), unlabeled (domain or fragment, UniProt P70336 698-957, looked up)
chain: T1 sequence (P70336 698-957 partner)
notes: also called Unlabeled R2-C1; unlabeled R2C1; source: E. coli, purified (HisPur Ni-NTA)
